The record followed here is patent US8043804 (TRUSTEES OF COLUMBIA UNIVERSITY IN THE CITY OF NEW YORK, dated 2011).

Experiment [1] concerns the target T1, ^35S-labeled in vitro-translated DBC1 (human, UniProt Q8N163 1-923, labelled by incorporation of ^35S-Methionine).
T1 construct: also called ^35S-DBC1; pCIN4-DBC1 product
Nature of the experiment: GST pull-down, autoradiography. As to the method:
(§1) Next, whether SIRT1 binds DBC1 in vitro was tested. […] The N-terminus of DBC1 as the SIRT1 binding domain was identified (FIG. 7). Since the enzymatic core sequence represents the most conserved region of mammalian SIRT protein family, whether DBC1 interacts with other members of this family was determined. Flag-tagged derivatives of the seven human SIRT polypeptides (SIRT1-7) were each expressed in 293 cells and extracts of the transfected cells were immunoprecipitated with the α-Flag antibody. […] Although similar expression levels for all seven Flag-SIRT polypeptides were detected, none of the other SIRT proteins (SIRT2, SIRT3, SIRT4, SIRT5, SIRT6 and SIRT7) were able to co-immunoprecipitate DBC1 (lanes 3-8, FIG. 2d).

The target in experiment [2] is T2, DBC1 (Deleted in Breast Cancer 1) protein (human, UniProt Q8N163 1-923).
T2 construct: Endogenous protein of HeLa, U2OS and 293 cells (about 140 kDa band), or expressed from a vector without a stated tag in H1299 cells; also called endogenous DBC1
Nature of the experiment: anti-Flag immunoprecipitation from transfected 293 cells, Western blot for endogenous DBC1. As to the method:
as §1

Experiment [3] deals with T2, DBC1 (Deleted in Breast Cancer 1) …. The experiment is described as follows: M2 immunoprecipitation of Flag-tagged SIRT family members from 293 cells, Western blot (FIG. 2d). The protocol: as §1
Background: Immunoblotting shows a protein as a band on a membrane.

The target of experiment [4] is T3, SIRT1 (Silencing mating type information regulator 2 homolog) (human, UniProt Q96EB6 2-747).
T3 construct: Endogenous protein of HeLa and U2OS cells, or expressed from a vector without a stated tag in H1299 cells; also called endogenous SIRT1; Sir2
T3 sequence (looked up): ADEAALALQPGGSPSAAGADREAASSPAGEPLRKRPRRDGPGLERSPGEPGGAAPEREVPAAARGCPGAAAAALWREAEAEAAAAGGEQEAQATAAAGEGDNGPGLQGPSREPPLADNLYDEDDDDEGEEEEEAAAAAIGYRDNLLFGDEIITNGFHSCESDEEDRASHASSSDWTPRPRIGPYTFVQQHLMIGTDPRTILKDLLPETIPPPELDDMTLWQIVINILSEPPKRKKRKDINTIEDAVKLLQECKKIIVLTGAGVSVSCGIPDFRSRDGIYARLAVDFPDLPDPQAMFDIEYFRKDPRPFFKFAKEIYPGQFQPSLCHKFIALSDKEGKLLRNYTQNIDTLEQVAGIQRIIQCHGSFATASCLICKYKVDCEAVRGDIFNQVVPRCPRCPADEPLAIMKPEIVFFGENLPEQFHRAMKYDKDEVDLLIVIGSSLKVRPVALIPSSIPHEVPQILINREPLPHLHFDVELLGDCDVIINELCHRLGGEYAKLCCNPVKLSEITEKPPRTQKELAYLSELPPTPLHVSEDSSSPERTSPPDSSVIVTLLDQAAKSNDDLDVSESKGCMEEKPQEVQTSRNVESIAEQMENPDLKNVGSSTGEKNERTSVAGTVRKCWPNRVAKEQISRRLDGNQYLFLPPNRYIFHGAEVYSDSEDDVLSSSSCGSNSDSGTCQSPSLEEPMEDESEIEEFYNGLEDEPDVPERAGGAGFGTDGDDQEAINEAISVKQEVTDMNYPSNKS
Nature of the experiment: affinity-purified SIRT1 complexes from HeLa extracts, Western blot. The protocol: Figure 1: FIG. 1. Identification of DBC1 as a major component of the SIRT1 complexes in human cells. (a) Colloidal-blue staining of affinity-purified SIRT1 complexes from HeLa extracts with the α-SIRT1 antibody column (lane 2) and a control elute from the same extract with a control antibody column (lane 3). Specific SIRT1 interacting proteins were analyzed by mass spectrometry. (b) Western Blot of input (lane 1), control IP (lane 2) and α-SIRT1 antibody IP (lane 3) for the known SIRT1 interacting protein 14-3-3σ (lower panel) and SIRT1 (upper panel) to verify specificity of the analyzed SIRT1 complex. (c) Schematic representation of the DBC1 protein.

T2 sequence (Q8N163 whole entry): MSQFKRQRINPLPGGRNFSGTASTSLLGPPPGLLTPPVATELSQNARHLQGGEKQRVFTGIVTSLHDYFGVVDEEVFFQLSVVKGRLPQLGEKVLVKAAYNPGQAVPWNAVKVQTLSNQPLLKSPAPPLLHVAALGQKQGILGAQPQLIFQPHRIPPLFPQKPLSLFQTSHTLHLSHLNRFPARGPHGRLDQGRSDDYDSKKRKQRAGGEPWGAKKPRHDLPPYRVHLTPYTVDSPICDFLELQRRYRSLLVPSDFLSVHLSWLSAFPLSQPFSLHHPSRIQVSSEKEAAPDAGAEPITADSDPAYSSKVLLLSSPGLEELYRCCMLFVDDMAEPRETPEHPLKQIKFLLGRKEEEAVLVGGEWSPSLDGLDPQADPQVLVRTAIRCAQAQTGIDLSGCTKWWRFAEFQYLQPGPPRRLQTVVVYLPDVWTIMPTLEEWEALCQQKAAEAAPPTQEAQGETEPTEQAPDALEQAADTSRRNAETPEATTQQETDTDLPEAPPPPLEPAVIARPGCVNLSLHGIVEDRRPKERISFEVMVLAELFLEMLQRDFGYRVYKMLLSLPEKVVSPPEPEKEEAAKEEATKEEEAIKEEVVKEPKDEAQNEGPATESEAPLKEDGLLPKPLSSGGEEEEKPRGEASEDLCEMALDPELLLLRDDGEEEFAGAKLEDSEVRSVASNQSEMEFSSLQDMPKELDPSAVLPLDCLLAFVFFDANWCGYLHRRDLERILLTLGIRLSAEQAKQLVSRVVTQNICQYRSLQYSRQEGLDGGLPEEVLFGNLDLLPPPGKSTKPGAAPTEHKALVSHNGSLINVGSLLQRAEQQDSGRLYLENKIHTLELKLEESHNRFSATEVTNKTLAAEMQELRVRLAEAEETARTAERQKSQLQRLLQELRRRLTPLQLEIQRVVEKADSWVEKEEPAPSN
T1 sequence (Q8N163 whole entry): as above

B1: GST-SIRT1-CT (other, human, UniProt Q96EB6 500-747, looked up)
chain: LCCNPVKLSEITEKPPRTQKELAYLSELPPTPLHVSEDSSSPERTSPPDSSVIVTLLDQAAKSNDDLDVSESKGCMEEKPQEVQTSRNVESIAEQMENPDLKNVGSSTGEKNERTSVAGTVRKCWPNRVAKEQISRRLDGNQYLFLPPNRYIFHGAEVYSDSEDDVLSSSSCGSNSDSGTCQSPSLEEPMEDESEIEEFYNGLEDEPDVPERAGGAGFGTDGDDQEAINEAISVKQEVTDMNYPSNKS
notes: domain: C-terminal; also called C-terminus of SIRT1; C-terminal domain of SIRT1; not shown: glutathione S-transferase (GST) fusion partner
With B1, the binding result in experiment [1] is “no binding”.

B2: Flag-SIRT7 (enzyme, human, UniProt Q9NRC8 1-400, looked up)
chain: MAAGGLSRSERKAAERVRRLREEQQRERLRQVSRILRKAAAERSAEEGRLLAESADLVTELQGRSRRREGLKRRQEEVCDDPEELRGKVRELASAVRNAKYLVVYTGAGISTAASIPDYRGPNGVWTLLQKGRSVSAADLSEAEPTLTHMSITRLHEQKLVQHVVSQNCDGLHLRSGLPRTAISELHGNMYIEVCTSCVPNREYVRVFDVTERTALHRHQTGRTCHKCGTQLRDTIVHFGERGTLGQPLNWEAATEAASRADTILCLGSSLKVLKKYPRLWCMTKPPSRRPKLYIVNLQWTPKDDWAALKLHGKCDDVMRLLMAELGLEIPAYSRWQDPIFSLATPLRAGEEGSHSRKSLCRSREEAPPGDRGAPLSSAPILGGWFGRGCTKRTKRKKVT
notes: not shown: Flag tag
On to B2, for which the binding result in experiment [2] is listed as “no binding”.

B3: Flag-SIRT2 (enzyme, human, UniProt Q8IXJ6 1-389, looked up)
chain: MAEPDPSHPLETQAGKVQEAQDSDSDSEGGAAGGEADMDFLRNLFSQTLSLGSQKERLLDELTLEGVARYMQSERCRRVICLVGAGISTSAGIPDFRSPSTGLYDNLEKYHLPYPEAIFEISYFKKHPEPFFALAKELYPGQFKPTICHYFMRLLKDKGLLLRCYTQNIDTLERIAGLEQEDLVEAHGTFYTSHCVSASCRHEYPLSWMKEKIFSEVTPKCEDCQSLVKPDIVFFGESLPARFFSCMQSDFLKVDLLLVMGTSLQVQPFASLISKAPLSTPRLLINKEKAGQSDPFLGMIMGLGGGMDFDSKKAYRDVAWLGECDQGCLALAELLGWKKELEDLVRREHASIDAQSGAGVPNPSTSASPKKSPPPAKDEARTTEREKPQ
notes: also called F-SIRT2; not shown: Flag tag
Turning to B3, the binding result in experiment [2] is reported as “no binding”.

B4: GST-SIRT1-NT (other, human, UniProt Q96EB6 1-210, looked up)
chain: MADEAALALQPGGSPSAAGADREAASSPAGEPLRKRPRRDGPGLERSPGEPGGAAPEREVPAAARGCPGAAAAALWREAEAEAAAAGGEQEAQATAAAGEGDNGPGLQGPSREPPLADNLYDEDDDDEGEEEEEAAAAAIGYRDNLLFGDEIITNGFHSCESDEEDRASHASSSDWTPRPRIGPYTFVQQHLMIGTDPRTILKDLLPETI
notes: domain: N-terminal; also called N-terminus of SIRT1; N-terminal domain of SIRT1; not shown: glutathione S-transferase (GST) fusion partner
For B4, in experiment [1], the binding result is listed as “no binding”.

B5: Flag-SIRT1 (enzyme, human, UniProt Q96EB6 1-747, looked up)
chain: MADEAALALQPGGSPSAAGADREAASSPAGEPLRKRPRRDGPGLERSPGEPGGAAPEREVPAAARGCPGAAAAALWREAEAEAAAAGGEQEAQATAAAGEGDNGPGLQGPSREPPLADNLYDEDDDDEGEEEEEAAAAAIGYRDNLLFGDEIITNGFHSCESDEEDRASHASSSDWTPRPRIGPYTFVQQHLMIGTDPRTILKDLLPETIPPPELDDMTLWQIVINILSEPPKRKKRKDINTIEDAVKLLQECKKIIVLTGAGVSVSCGIPDFRSRDGIYARLAVDFPDLPDPQAMFDIEYFRKDPRPFFKFAKEIYPGQFQPSLCHKFIALSDKEGKLLRNYTQNIDTLEQVAGIQRIIQCHGSFATASCLICKYKVDCEAVRGDIFNQVVPRCPRCPADEPLAIMKPEIVFFGENLPEQFHRAMKYDKDEVDLLIVIGSSLKVRPVALIPSSIPHEVPQILINREPLPHLHFDVELLGDCDVIINELCHRLGGEYAKLCCNPVKLSEITEKPPRTQKELAYLSELPPTPLHVSEDSSSPERTSPPDSSVIVTLLDQAAKSNDDLDVSESKGCMEEKPQEVQTSRNVESIAEQMENPDLKNVGSSTGEKNERTSVAGTVRKCWPNRVAKEQISRRLDGNQYLFLPPNRYIFHGAEVYSDSEDDVLSSSSCGSNSDSGTCQSPSLEEPMEDESEIEEFYNGLEDEPDVPERAGGAGFGTDGDDQEAINEAISVKQEVTDMNYPSNKS
notes: Expressed in 293 or H1299 cells, immunoprecipitated with M2 anti-Flag beads; also called F-SIRT1; Flag-tagged SIRT1; not shown: Flag tag
On to B5, for which the binding result in experiment [3] is “binds”.

B6: 14-3-3σ (other, human, UniProt P31947 1-248, looked up)
chain: MERASLIQKAKLAEQAERYEDMAAFMKGAVEKGEELSCEERNLLSVAYKNVVGGQRAAWRVLSSIEQKSNEEGSEEKGPEVREYREKVETELQGVCDTVLGLLDSHLIKEAGDAESRVFYLKMKGDYYRYLAEVATGDDKKRIIDSARSAYQEAMDISKKEMPPTNPIRLGLALNFSVFHYEIANSPEEAISLAKTTFDEAMADLHTLSEDSYKDSTLIMQLLRDNLTLWTADNAGEEGGEAPQEPQS
Regarding B6, in experiment [4], the binding result is “binds”.
